The results in this text go back to patent US20260209362A1 (VIB VZW, published 2026).

In test [1] the target is T1, biotinylated recombinant human IL-12Rβ2 (produced in-house) (human, UniProt Q99665 24-622, random biotinylated).
T1 construct: also called hIL-12RB2; hIL12RB2
T1 sequence: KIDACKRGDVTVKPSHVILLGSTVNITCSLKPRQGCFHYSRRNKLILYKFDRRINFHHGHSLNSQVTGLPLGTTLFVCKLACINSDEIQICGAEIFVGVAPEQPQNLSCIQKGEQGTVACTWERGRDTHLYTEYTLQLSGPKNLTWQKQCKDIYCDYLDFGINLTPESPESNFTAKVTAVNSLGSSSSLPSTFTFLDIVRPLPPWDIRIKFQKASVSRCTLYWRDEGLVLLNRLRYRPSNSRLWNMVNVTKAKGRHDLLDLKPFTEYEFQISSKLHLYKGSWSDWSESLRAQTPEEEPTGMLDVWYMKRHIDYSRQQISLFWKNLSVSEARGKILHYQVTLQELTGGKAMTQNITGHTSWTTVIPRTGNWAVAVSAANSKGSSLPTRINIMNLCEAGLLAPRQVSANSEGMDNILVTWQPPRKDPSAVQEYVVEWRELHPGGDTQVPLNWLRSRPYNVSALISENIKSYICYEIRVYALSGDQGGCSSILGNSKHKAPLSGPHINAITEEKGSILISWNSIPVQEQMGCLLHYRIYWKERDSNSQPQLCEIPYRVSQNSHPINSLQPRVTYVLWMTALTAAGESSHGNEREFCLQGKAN
Description: BLI (Octet), P.E. VHH on immobilised biotinylated hIL-12RB2. A general note: Biolayer interferometry detects binding as a change in optical thickness at a sensor tip.

The target of test [2] is T2, mouse IL-12Rβ2 expressed on cells (mouse, UniProt P97378 24-874).
T2 construct: HEK293T cells, stably transduced (cDNA NM_008354); also called mIL-12RB2
T2 sequence: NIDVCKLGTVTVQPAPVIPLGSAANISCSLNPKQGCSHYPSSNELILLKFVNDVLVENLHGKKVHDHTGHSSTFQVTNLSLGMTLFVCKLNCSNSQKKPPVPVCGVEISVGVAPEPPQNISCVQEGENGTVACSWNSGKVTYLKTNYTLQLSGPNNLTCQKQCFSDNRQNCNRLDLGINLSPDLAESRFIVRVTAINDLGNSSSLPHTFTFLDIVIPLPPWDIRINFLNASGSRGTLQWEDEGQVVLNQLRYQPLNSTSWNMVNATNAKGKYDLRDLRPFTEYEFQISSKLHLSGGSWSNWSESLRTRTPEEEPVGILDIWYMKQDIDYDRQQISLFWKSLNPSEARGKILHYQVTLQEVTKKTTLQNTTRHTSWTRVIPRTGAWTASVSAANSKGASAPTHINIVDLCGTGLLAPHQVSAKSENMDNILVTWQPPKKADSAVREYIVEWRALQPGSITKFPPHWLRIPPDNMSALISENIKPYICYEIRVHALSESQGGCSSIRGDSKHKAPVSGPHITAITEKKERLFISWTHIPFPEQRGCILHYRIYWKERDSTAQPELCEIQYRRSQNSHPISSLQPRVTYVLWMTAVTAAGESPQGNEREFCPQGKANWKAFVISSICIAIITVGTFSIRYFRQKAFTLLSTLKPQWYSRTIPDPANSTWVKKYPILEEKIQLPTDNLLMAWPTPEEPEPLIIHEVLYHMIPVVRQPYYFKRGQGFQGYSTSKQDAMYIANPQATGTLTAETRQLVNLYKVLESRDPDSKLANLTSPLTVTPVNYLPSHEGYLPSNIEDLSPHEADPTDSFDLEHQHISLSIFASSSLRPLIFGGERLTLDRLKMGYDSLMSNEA
As to the kind of experiment: flow cytometry, P.E. VHH on HEK293T cells stably expressing mIL-12RB2.

Test [3] addresses T1, biotinylated recombinant human IL-12Rβ2 …. Description: BLI (Octet), P.E. VHH on immobilised biotinylated hIL-12RB2, 1:1 model.
The target in test [4] is T3, biotinylated recombinant mouse IL-12Rβ2 (produced in-house) (mouse, UniProt P97378 24-637, random biotinylated).
T3 construct: also called mIL-12RB2; mIL12RB2
T3 sequence: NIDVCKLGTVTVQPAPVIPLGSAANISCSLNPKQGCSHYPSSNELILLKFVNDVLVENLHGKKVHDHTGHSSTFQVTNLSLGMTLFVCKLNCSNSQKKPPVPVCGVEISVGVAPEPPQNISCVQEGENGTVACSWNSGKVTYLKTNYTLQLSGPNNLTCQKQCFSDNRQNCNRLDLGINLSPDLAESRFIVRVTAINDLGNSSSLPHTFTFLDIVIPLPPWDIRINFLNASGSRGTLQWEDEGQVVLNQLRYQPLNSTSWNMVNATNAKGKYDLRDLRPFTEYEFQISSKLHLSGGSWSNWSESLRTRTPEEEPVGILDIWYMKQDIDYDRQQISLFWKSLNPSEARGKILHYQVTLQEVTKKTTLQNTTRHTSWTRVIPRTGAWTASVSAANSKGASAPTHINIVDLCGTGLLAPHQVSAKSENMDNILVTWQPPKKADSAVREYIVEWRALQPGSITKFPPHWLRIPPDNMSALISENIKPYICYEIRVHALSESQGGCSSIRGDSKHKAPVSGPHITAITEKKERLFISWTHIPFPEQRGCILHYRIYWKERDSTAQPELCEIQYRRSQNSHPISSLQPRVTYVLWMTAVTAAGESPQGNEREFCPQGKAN
Description: BLI (Octet), P.E. VHH on immobilised biotinylated mIL-12RB2, 1:1 model.

Test [5] deals with T1, biotinylated recombinant human IL-12Rβ2 …. As to the kind of experiment: ELISA, P.E. VHH on biotinylated hIL-12RB2, signal ratio to control well.
The target in test [6] is T3, biotinylated recombinant mouse IL-12Rβ2 …. As to the kind of experiment: ELISA, P.E. VHH on biotinylated mIL-12RB2, signal ratio to control well.
For test [7], the target named is T2, mouse IL-12Rβ2 expressed on cells. Description: flow cytometry, P.E. VHH on HEK293T cells transiently expressing mIL-12RB2. A general note: A flow cytometer gives signals particle by particle.

B1: anti-IL-12Rβ2 VHH clone 3CRHM73 (VHH, not shown: small tags and cut ends)
VHH: QVQLQESGGGLVQAGGSLSLSCAASGSAFRLNFMGWYRQAPGKQRELVAAINSGGTEIYHDSVKGRFTISRDNADSTVWLQMNSLKPDDTAVYYCAADRGISWSKLAGGMDYWGKGTQVTVSS
notes: tested as periplasmic extract; also called 21060
Broadly, the koff is the rate constant with which the complex falls apart. For B1, the Response in test [1] amounted to 1.45. Moreover, the entries for the “% cells bound” value in test [2] and in test [7] were 27.3% and 10.4%, respectively. Besides, the dMFI amounted to 150 in test [2] and 257 in test [7]. Moreover, the koff in test [3] and in test [4] was 0.00605 s⁻¹ in each case. The “ELISA hIL12RB2/control” value in test [5] was 6.9. For the same molecule, the “ELISA mIL12RB2/control” value in test [6] was determined as 26.3.

B2: anti-IL-12Rβ2 VHH clone 3CRHM14 (VHH, not shown: small tags and cut ends)
VHH: QVQLQESGGGLVQAGGSLRLSCAASGRTFSNYAMAWFRQAPGTEREFVAGLSGSGGDTEFYDDSVKGRFAISRDSAKNTVWLQMNSLKPEDTAVYYCAAATHVVVHYGLVRRRGTYDYWGQGTQVTVSS
notes: tested as periplasmic extract
On to B2, for which the Response in test [1] is 1.19. The “% cells bound” value in test [2] came out at 26.2%; in test [7], 18.6%. For the same molecule, the dMFI in test [2] is 136; in test [7], 312. Also, the results for the koff in test [3] and in test [4] were 0.00532 s⁻¹ and 0.00483 s⁻¹, respectively. For the same molecule, in test [5], the “ELISA hIL12RB2/control” value came out at 3.11. In test [6], the “ELISA mIL12RB2/control” value was 25.1.

B3: anti-IL-12Rβ2 VHH clone 3CRHM99 (VHH, not shown: small tags and cut ends)
VHH: QVQLQESGGGLVQPGGSLRLSCAASGISSSRLHVGWFRQSPGKEREFVAAISLSGGTQAYTDSVKGRFTISGDNVKNTAYLQMNSLRPEDTAVYYCAARERFIWTWSDLTYDYWGQGTQVTVSS
notes: tested as periplasmic extract; also called 21062
As to B3, the Response in test [1] is 1.45. The results for the “% cells bound” value in test [2] and in test [7] were 57.3% and 10.7%, respectively. In addition, the results for the dMFI in test [2] and in test [7] were 309 and 251, respectively. The figures for the off-rate constant (koff) in test [3] and in test [4] were 0.00634 s⁻¹ and 0.00671 s⁻¹, respectively. Also, the “ELISA hIL12RB2/control” value in test [5] stood at 4.24. Moreover, the “ELISA mIL12RB2/control” value in test [6] is 5.24.

B4: anti-IL-12Rβ2 VHH clone 3CAHM11 (VHH, not shown: small tags and cut ends)
VHH: QVQLQESGGGLVQAGGSLRLSCAASGRTFNNYAMAWFRQAPGKEREFIAAITRSDTTLYIDSVKGRFTISRDNAKNTVALQMNSLKPEDTAVYYCAAGMPYSYSDYPRDSKYDYWGRGTQVTVSS
notes: tested as periplasmic extract
With B4, the Response in test [1] worked out at 1.4. In addition, the “% cells bound” value in test [2] came to 56.9%; in test [7], 7.53%. Further, the dMFI worked out at 316 in test [2] and 194 in test [7]. Further, the koff in test [3] is 0.00519 s⁻¹; in test [4] it was 0.00462 s⁻¹. In test [5], the “ELISA hIL12RB2/control” value was 3.04. Further, the “ELISA mIL12RB2/control” value in test [6] was 38.8.
